Laboratory results published in article PMC3778974 (Cell, 2013).
Where two headings read alike, the source gives them in different places.

T1: Def1_(1-500), recombinant (Def1_(1-500)-His) (S. cerevisiae, UniProt P35732 1-500)
T1 sequence (looked up): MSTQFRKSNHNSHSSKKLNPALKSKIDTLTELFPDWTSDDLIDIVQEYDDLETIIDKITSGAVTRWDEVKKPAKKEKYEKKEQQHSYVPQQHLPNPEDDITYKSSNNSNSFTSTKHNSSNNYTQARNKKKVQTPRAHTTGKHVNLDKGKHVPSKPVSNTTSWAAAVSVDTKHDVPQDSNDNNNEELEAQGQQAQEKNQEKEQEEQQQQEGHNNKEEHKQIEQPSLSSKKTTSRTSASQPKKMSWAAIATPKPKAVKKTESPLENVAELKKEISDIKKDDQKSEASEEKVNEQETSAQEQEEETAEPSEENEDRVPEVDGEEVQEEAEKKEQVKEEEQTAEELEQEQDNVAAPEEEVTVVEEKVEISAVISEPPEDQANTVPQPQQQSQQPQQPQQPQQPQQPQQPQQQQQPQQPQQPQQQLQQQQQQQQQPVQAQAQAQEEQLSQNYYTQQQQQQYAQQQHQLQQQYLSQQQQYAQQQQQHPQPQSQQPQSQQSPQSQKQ


What was measured:
[1] = target: T1, Def1_(1-500), recombinant …; assay: pull-down
[2] = target: T1, Def1_(1-500), recombinant …; assay: pull-down; remark: listed apart in the source

Row | Binder | binding result [1] | binding result [2]
1 | recombinant Ela1-Elc1 heterodimer (full-length His-Ela1 with Elc1) (complex, S. cerevisiae) chain 1: MKSLQTLCEISLMRNHSNIQSVSNVPYHLLKRILQKVKIPQLLKLEKSNVLLIFDDDELWLEFLRQDFPTNVHEQFVSKRDIICKYYFDFVKENDIELYHSNQDLLKSCVRQSVVKDIRNNKYRIPYRMLYSKYQQEVEKKQEESAERLRLEMQKLQQEREKKQTIVVDHTVYFKKRNTKKTTRLHNEPHSQLYMKSLKDHESRLKHFKDGGFNIAKRHAQRVAFGGQAGGQSSSPKKGPLSIKPEPVKVNRQMDNVTAEKKDVTQPITPVKKRRSESPSIFLNRKKPALFRPTPKTNAAGSRPHTTAITNDHRTTSHPYPHKDVVTSISSVTANPVTKGHKKKKSGIFVRNAGSDGDSFPHVTATGPTTRPYIYEPRK chain 2: MSQDFVTLVSKDDKEYEISRSAAMISPTLKAMIEGPFRESKGRIELKQFDSHILEKAVEYLNYNLKYSGVSEDDDEIPEFEIPTEMSLELLLAADYLSI | binds | 
2 | GST-Ela1_(250–379) (domain or fragment, S. cerevisiae, UniProt P53861 250-379, looked up) VNRQMDNVTAEKKDVTQPITPVKKRRSESPSIFLNRKKPALFRPTPKTNAAGSRPHTTAITNDHRTTSHPYPHKDVVTSISSVTANPVTKGHKKKKSGIFVRNAGSDGDSFPHVTATGPTTRPYIYEPRK |  | binds
